32 compounds from patent publication US6515103B1 (priority 1996, dated 2003) can be followed below.

Data set [1] has as its system Frings audiogenic seizure-susceptible mice. Conditions: for P.I. / PI: Frings audiogenic seizure-susceptible; for P.I. / ED50 / PI / ED50 nmol: mouse, in vivo.
The test system is the same in data set [2]. Conditions: mouse, in vivo.
Data set [3] has as its target NMDA receptor. The experiment in a line: spermine-stimulated [3H]MK-801 binding assay, inhibition.
The mark [4] stands for this setting: Frings audiogenic seizure-susceptible.

pIC50: −log10 of the molar value. “And” between values parts separate entries of the source, which are not always exact repeats. Identical values can stand only once. Like-named read-outs stand apart in the source and are kept apart here.

As usually defined, the pIC50 is the IC50 on a negative log10 scale, so that one unit is a factor of ten. Lower therefore signals a high IC50.

On to `NC(=O)OCC(COC(N)=O)c1ccccc1` [Felbamate, reference compound], for which the “protected (number/tested) printed in ED50 column” value in data set [1] (30 min) is 5/8 protected at 525 and 4/8 protected at 630. In addition, the TD50 nmol result in data set [2] is reported as “no marked toxicity”. Take `CC(C(O)c1ccc(O)cc1)N1CCC(Cc2ccccc2)CC1` (stereo not shown) [Ifenprodil, reference compound]: in data set [1], the P.I. is under 1 and the ED50 result is “˜25 nmols”. For the same compound, in data set [2] (setting [4]), the TD50 is given as under 25 nmols. In data set [1], `Nc1nnc(-c2cccc(Cl)c2Cl)c(N)n1` [Lamotrigine, reference compound] registered a PI of over 2.0 and an ED50 nmol of 146 nmol. Besides, in data set [2] (setting [4]), the TD50 nmol is reported as over 290 nmol. For `C[C@]12N[C@H](Cc3ccccc31)c1ccccc12` [MK801, dizocilpine, reference compound], in data set [1], the P.I. is given as 1.9 and the ED50 was found to be 0.641 nmols. Besides, the TD50 in data set [2] (setting [4]) amounted to 1.227 nmols. In data set [1], `CCC1(c2ccccc2)C(=O)NC(=O)NC1=O` [Phenobarbitol, reference compound] returned a PI of 0.5 and an ED50 nmol of 145 nmol. The same compound yielded a TD50 nmol in data set [2] (setting [4]) of 68.8 nmol. Consider `CC1(C)O[C@@H]2[C@@H](CO[C@@]3(COS(N)(=O)=O)OC(C)(C)O[C@@H]23)O1` [Topiramate, reference compound], for which, in data set [1], the ED50 nmol is over 150 nmol. Also, in data set [2], the TD50 nmol entry is given as “no marked toxicity”.

With `CCCC(CCC)C(=O)O` [Valproic Acid, reference compound], in data set [1], the P.I. was 1.1-2.2, the PI is 1.1-2.2, the ED50 nmol was 566 nmol and the ED50 was 5644 nmols. Further, the TD50 in data set [2] (setting [4]) was >6000 <12,000. On to (A^7,10)1-12 Con G (peptide), for which the pIC50 in data set [3] was 6.52.

In data set [3], (A^7,10)1-13 Con G (peptide) gave a pIC50 of 6.60.

In turn, (A^7,10,14)1-14 Con G (peptide) showed a pIC50 in data set [3] of 6.63. The pIC50 values of the last two compounds are within 0.2 log units of each other. (A^7,10,14)1-15 Con G (peptide) gave a pIC50 in data set [3] of 7.47. On to (A^7,10,14)1-16 Con G (peptide), for which the pIC50 in data set [3] is 7.43. On the same count and under the same terms, next, A^3 Con G (peptide): 5.04; A^4 Con G (peptide): under 4.70. Same read-out and setting: then A^7,10,14 Con G (peptide), with 7.06; and A^7,Y^10 Con G (peptide), with 7.10; and A^10 Con G (peptide), with 5.96. Same read-out and setting: then A^14 Con G (peptide), with 6.80; and E^4 Con G (peptide), with under 4.70; and E^7,10,14 Con G (peptide), with under 4.70.

In the case of S^3 Con G (peptide), the pIC50 in data set [3] was 5.44. The same measure, in the same setting: next, S^4 Con G (peptide): under 4.70; S^7 Con G (peptide): 6.60.

In data set [3], S^10 Con G (peptide) showed a pIC50 of 5.74. Against the preceding compound, the pIC50 is 0.86 log units lower. In turn, S^14 Con G (peptide) showed a pIC50 in data set [3] of 6.80. Still for that read-out and setting: then Sp^3 Con G (peptide), with 6.05; and Sp^4 Con G (peptide), with under 4.70. Take Sp^7 Con G (peptide): in data set [3], the pIC50 was 5.92. The same measure, in the same setting: then Sp^10 Con G (peptide), with 6.25; and Sp^14 Con G (peptide), with 5.80; and Y^3 Con G (peptide), with 6.02. Compound Y^7 Con G (peptide) gave a pIC50 in data set [3] of 6.02.
